Measurements as given in publication PMC7177926, “Spliceosomal Protein Gene BmSPX Regulates Reproductive Organ Development in Bombyx mori”.

Molecular target: MBP-BmPSI (P-element somatic inhibitor) (Bombyx mori, UniProt A8R081 1-703)
Assay: EMSA; RNA dissolved in protein purification buffer, 20 mM Tris, 20 mM NaCl; pH, temperature and EMSA binding details not given
Conditions: protein: recombinant; tags: N-terminal His6-MBP-TEV; label: biotin at 5' and 3' ends; single strand

MBP-BmPSI (P-element somatic inhibitor), sequence (A8R081 entry or part of it): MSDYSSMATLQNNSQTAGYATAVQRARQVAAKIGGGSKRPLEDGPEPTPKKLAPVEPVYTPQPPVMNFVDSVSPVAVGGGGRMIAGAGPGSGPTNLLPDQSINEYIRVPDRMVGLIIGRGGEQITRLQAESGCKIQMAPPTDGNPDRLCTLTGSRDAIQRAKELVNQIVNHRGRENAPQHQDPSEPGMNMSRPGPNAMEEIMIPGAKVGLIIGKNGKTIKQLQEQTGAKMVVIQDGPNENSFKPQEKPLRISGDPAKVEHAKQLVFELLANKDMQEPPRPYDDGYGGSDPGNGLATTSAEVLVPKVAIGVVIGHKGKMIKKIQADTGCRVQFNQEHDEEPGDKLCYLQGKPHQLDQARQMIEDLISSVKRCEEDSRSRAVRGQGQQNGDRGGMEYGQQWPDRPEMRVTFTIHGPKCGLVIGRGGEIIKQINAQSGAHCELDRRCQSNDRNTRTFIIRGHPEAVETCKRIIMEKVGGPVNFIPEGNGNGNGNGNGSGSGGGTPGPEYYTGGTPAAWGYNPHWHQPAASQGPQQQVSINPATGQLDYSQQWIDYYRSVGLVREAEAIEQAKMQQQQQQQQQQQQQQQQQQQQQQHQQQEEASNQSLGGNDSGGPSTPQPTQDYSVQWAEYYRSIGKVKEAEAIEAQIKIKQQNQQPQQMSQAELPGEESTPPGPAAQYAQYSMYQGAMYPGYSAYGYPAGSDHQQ

B1: CE1 RNA probe (ssRNA)
RNA: UUAAUAAUAUAAGUGGUGUA
- binding result: binds
